Non-standard residues stand in square brackets, D forms with d. No end group written: not given here. hArg = N=C(N)NCCCC[C@H](N)C(=O)O; Orn = NCCC[C@H](N)C(=O)O

The target in one test is T1, human GHRH receptor (Homo sapiens, UniProt Q02643).
T1 sequence (Q02643 23-423): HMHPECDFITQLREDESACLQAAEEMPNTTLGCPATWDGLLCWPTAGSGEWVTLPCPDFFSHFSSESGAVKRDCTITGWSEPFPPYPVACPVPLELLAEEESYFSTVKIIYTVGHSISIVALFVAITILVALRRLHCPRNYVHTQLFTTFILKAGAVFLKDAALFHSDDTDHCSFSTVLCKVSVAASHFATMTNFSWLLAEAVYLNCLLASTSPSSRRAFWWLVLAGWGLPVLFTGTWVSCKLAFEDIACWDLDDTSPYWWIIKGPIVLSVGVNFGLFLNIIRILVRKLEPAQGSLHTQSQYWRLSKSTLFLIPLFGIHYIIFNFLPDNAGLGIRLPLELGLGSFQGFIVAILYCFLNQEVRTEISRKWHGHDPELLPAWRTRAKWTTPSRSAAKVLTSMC
As to the kind of experiment: Hit Hunter (DiscoveRx) cAMP agonist assay in cells expressing GHRH receptor. The format is cell-based. The settings on record: for In vitro potency / biological activity (in words): effect of Cys-PEG substitution compared with native peptide. How it is done: For agonist determination, cells were incubated with sample to induce response. Media was aspirated from cells and replaced with 15 μL 2:1 HBSS/10 mM Hepes: cAMP XS+Ab reagent. […] Vehicle concentration was 1%. After appropriate compound incubation, assay signal was generated through incubation with 20 μL cAMP XS+ED/CL lysis cocktail for one hour followed by incubation with 20 μL cAMP XS+EA reagent for three hours at room temperature. Microplates were read following signal generation with a PerkinElmer Envision™ instrument for chemiluminescent signal detection. Compound activity was analyzed using CBIS data analysis suite (ChemInnovation, CA).

A further test concerns Growth Hormone secretion. As to the kind of experiment: GH release after subcutaneous injection of GHRH analogs in Sprague-Dawley rats (plasma GH ELISA). The class given is in vivo. The settings on record: female rats; for Growth hormone AUC (0-90 min): single subcutaneous dose 0.04 mg/kg, plasma GH, FIG. 1. From the text: Sprague-Dawley rats (female, weighing from 250 to 300 g) were obtained from Charles River Inc. Animals were used according to a protocol of the Animal Care Committee along with the principles of the Guide for the Care and Use of Experimental Animals of the Canadian Council on Animal Care. The animals were maintained on standard laboratory chow under a 12:12 light:dark cycle. They were kept in groups of 4 rats per cage. The animals were anesthetized with isoflurane 2.5%. A mid-section opening was made in the neck to expose the carotid artery. The carotid artery was canulated with polypropylene tubing (PE-50) to allow blood withdrawal. After surgical preparation, rats received a subcutaneous injection of GHRH analog (10-100 μg/kg) dissolved in 20 mM AcONa+5% mannitol at pH 5). Blood samples (400 μL/time point) were collected from 2-4 animals per group. […] Blood was collected into microtainer tubes containing K3EDTA, mixed and immediately centrifuged at 13,000 RPM in a desktop centrifuge for 2 minutes. The plasma was collected and placed into a screw cap Eppendorf™ tube and quickly frozen in liquid nitrogen. The samples were then kept at −80° C. until assayed. Determination of GH levels was performed as described below.
Rat and mouse plasma samples were vortexed carefully and centrifuged at 9,000 RPM for 2 min at 4° C. […] The remainder of the procedure was performed according to the manufacturer's instructions, and the data obtained were analyzed using GraphPad Prism™ software. […] Growth hormone levels were determined in timed-aliquots of blood and are depicted in FIG. 1. […]
The N-terminal part of the GHRH peptide is known to be buried in the extracellular loops and transmembrane domains of the GHRH receptor, and thus almost all of the amino acids in the N-terminal domain participate in high affinity binding of the GHRH peptide to the receptor. […] Briefly, peptides (0.04 mg/kg) were subcutaneously injected in female rats and growth hormone levels were determined in timed aliquots of blood drawn from the animals.
For orientation: ELISA stands for enzyme-linked immunosorbent assay.

For `CC[C@H](C)[C@H](NC(=O)[C@H](C)NC(=O)[C@H](CC(=O)O)NC(=O)[C@H](C)NC(=O)[C@@H](N)Cc1ccc(O)cc1)C(=O)N[C@@H](Cc1ccccc1)C(=O)N[C@H](C(=O)N[C@@H](CC(N)=O)C(=O)N[C@@H](CO)C(=O)N[C@@H](Cc1ccc(O)cc1)C(=O)N[C@@H](CCCNC(=N)N)C(=O)N[C@@H](CCCCN)C(=O)N[C@H](C(=O)N[C@@H](CC(C)C)C(=O)NCC(=O)N[C@@H](CCC(N)=O)C(=O)N[C@@H](CC(C)C)C(=O)N[C@@H](CO)C(=O)N[C@@H](C)C(=O)N[C@@H](CCCNC(=N)N)C(=O)N[C@@H](CCCCN)C(=O)N[C@@H](CC(C)C)C(=O)N[C@@H](CC(C)C)C(=O)N[C@@H](CCC(N)=O)C(=O)N[C@@H](CC(=O)O)C(=O)N[C@H](C(=O)N[C@@H](CCSC)C(=O)N[C@@H](CO)C(=O)N[C@@H](CCCNC(=N)N)C(N)=O)[C@@H](C)CC)C(C)C)[C@@H](C)O` [GHRH1-29, reference compound], the “Max. response (%)” value at human GHRH receptor (Table 3, independent experiment) was 112.97%. For the compound “YaDAIFTAC(Peg-2K)YROVLAQLSAROALQDILS-(Har)-NH2 (Y[dA]DAIFTAC(PEG 2 kDa)YR[Orn]VLAQLSAR[Orn]ALQDILS[hArg]-NH2) [Analog 10, GHRH analog, about 2 kDa PEG on Cys9, C-terminal Har-NH2]”, the “Fold more potent than the native peptide” value in the test with human GHRH receptor (Table 3 experiment, versus GHRH1-29) is listed as roughly 14 fold. As for “YaDAIFTAC(Peg-2K)YROVLAQLSAROALQDILSKN-NH2 (Y[dA]DAIFTAC(PEG 2 kDa)YR[Orn]VLAQLSAR[Orn]ALQDILSKN-NH2) [Analog 6, GHRH analog, Cys conjugated to about 2 kDa PEG at position 9]”, in the test on Growth Hormone secretion, the “Growth hormone AUC (0-90 min)” value is 29075 ng/ml/90 min.

Take “YaDAIFTAC(Peg-5K)YROVLAQLSAROALQDILS(Har)-NH2 (Y[dA]DAIFTACYR[Orn]VLAQLSAR[Orn]ALQDILS[hArg]-NH2; not fully specified (residue 9); printed as YaDAIFTAC(Peg-5K)YROVLAQLSAROALQDILS(Har)-NH2) [Analog 15, GHRH analog, 5K PEG on Cys9, C-terminal Har-NH2]”: in the test with human GHRH receptor, the “In vitro potency / biological activity (in words)” value is given as “without loss of in vitro biological activity”. As to “YaDAIFTAC(Peg-40K)YROVLAQLSAROALQDILS(Har)-NH2 (Y[dA]DAIFTAC(PEG 40 kDa)YR[Orn]VLAQLSAR[Orn]ALQDILS[hArg]-NH2) [Analog 16, GHRH analog, about 40 kDa PEG on Cys9, C-terminal Har-NH2]”, the “In vitro potency / biological activity (in words)” value in the test with human GHRH receptor is recorded as “without loss of in vitro biological activity”.

Turning to “YaDAIFTASYROVLAC(Peg-2K)LSAROALQDILSKN-NH2 (Y[dA]DAIFTASYR[Orn]VLAC(PEG 2 kDa)LSAR[Orn]ALQDILSKN-NH2) [Analog 9, GHRH analog, Cys conjugated to about 2 kDa PEG at position 16]”, the “In vitro potency / biological activity (in words)” value with human GHRH receptor is recorded as “reduced potency”. Take “YaDAIFTASYROVLAQLSAROALQDC(Peg-2K)LSKN-NH2 (Y[dA]DAIFTASYR[Orn]VLAQLSAR[Orn]ALQDC(PEG 2 kDa)LSKN-NH2) [Analog 8, GHRH analog, Cys conjugated to about 2 kDa PEG at position 26]”: the “In vitro potency / biological activity (in words)” value with human GHRH receptor is reported as “reduced potency”. Regarding “YaDAIFTASYROVLAQLSAROALQDILC(Peg-2K)KN-NH2 (Y[dA]DAIFTASYR[Orn]VLAQLSAR[Orn]ALQDILC(PEG 2 kDa)KN-NH2) [Analog 1, GHRH analog, Cys conjugated to about 2 kDa PEG at position 28]”, in the test on Growth Hormone secretion (subcutaneous 0.04 mg/kg, FIG. 1 / FIG. 2), the “Stimulation of GH secretion (in words)” value was “potently stimulated GH secretion”. Regarding “YaDAIFTASYROVLAQLSC(Peg-2K)ROALQDILSKN-NH2 (Y[dA]DAIFTASYR[Orn]VLAQLSC(PEG 2 kDa)R[Orn]ALQDILSKN-NH2) [Analog 4, GHRH analog, Cys conjugated to about 2 kDa PEG at position 19]”, the “In vitro potency / biological activity (in words)” value with human GHRH receptor is given as “reduced potency”.

With “YaDAIFTASYROVLC(Peg-2K)QLSAROALQDILSKN-NH2 (Y[dA]DAIFTASYR[Orn]VLC(PEG 2 kDa)QLSAR[Orn]ALQDILSKN-NH2) [Analog 5, GHRH analog, Cys conjugated to about 2 kDa PEG at position 15]”, the “In vitro potency / biological activity (in words)” value with human GHRH receptor was “reduced potency”. For the compound “YaDAIFTC(Peg-2K)SYROVLAQLSAROALQDILSKN-NH2 (Y[dA]DAIFTC(PEG 2 kDa)SYR[Orn]VLAQLSAR[Orn]ALQDILSKN-NH2) [Analog 7, GHRH analog, Cys conjugated to about 2 kDa PEG at position 8]”, the “In vitro potency / biological activity (in words)” value with human GHRH receptor is recorded as “reduced potency”. For the same compound, the “Growth hormone AUC (0-90 min)” value in the test with Growth Hormone secretion stood at 15657 ng/ml/90 min.

The record behind these values is patent US9988428B2, “Pegylated bioactive peptides and uses thereof” (GRIFFON PHARMACEUTICALS INC., priority 2016, dated 2018).
